Data on 10 molecules can be found in patent publication US20250043026A1 (SHANGHAI BAO PHARMACEUTICALS, published 2025).

One assay concerns the target FcRn (Acro Biosystems) (human, UniProt P55899 24-297; P61769 21-119). Kind of assay: BLI (Fortebio), FcRn loaded on HIS1K probe, pH 7.0. On the procedure:
The variant proteins were tested for affinity to FcRn at pH 7.0. The affinity of the antibody fragment for the receptor was determined using Fortebio. FcRn (Acro Biosystems) was loaded at 0.8 nm with an HIS1K probe, bound to the variant protein at various concentrations for 60 seconds and dissociated for 300 seconds.
A general note: BLI is a label-free optical method that tracks binding on a fibre tip over time.

For assay [1], the target named is T1, FcγRIIa-131R (Acro Biosystems) (UniProt P12318 36-218, limits assumed).
T1 construct: The 131H/R allotypes are those of the human receptor
T1 sequence (looked up): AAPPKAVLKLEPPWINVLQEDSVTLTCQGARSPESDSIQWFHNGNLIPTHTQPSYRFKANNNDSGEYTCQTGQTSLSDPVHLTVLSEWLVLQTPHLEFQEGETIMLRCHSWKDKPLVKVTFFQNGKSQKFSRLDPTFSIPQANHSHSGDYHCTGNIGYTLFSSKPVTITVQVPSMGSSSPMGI
Kind of assay: BLI (Fortebio), FcγR loaded on HIS1K probe, pH 7.0. On the procedure:
(§1) The variant proteins were tested for affinity to FcγRI, FcγRIIa-131H, FcγRIIa-131R, FcγRIIb, FcγRIIIa-158F, FcγRIIIa-158V at pH 7.0. The affinity of the antibody fragment for the receptor was determined using Fortebio. Different FcγR (Acro Biosystems) was loaded at 0.5 nm with an HIS1K probe, bound to the variant protein at various concentrations for 60 seconds and dissociated for 60 seconds.

Assay [2] addresses T2, FcγRIIIa-158F (Acro Biosystems) (UniProt P08637 17-208).
T2 construct: The 158V/F allotypes are those of the human receptor
The assay is described as follows: BLI (Fortebio), FcγR loaded on HIS1K probe, pH 7.0. On the procedure: as §1

The target in assay [3] is T3, FcγRI (Acro Biosystems) (UniProt P12314 16-288, limits assumed).
T3 construct: also called CD64
The assay is described as follows: BLI (Fortebio), FcγR loaded on HIS1K probe, pH 7.0. On the procedure: as §1

Assay [4] has as its target T4, FcγRIIb (Acro Biosystems) (UniProt P31994 46-217, limits assumed).
T4 sequence (looked up): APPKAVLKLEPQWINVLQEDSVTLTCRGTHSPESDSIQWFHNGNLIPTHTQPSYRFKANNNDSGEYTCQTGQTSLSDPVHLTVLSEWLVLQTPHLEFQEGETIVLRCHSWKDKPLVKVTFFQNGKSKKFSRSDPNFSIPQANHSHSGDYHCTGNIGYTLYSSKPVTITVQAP
Kind of assay: BLI (Fortebio), FcγR loaded on HIS1K probe, pH 7.0. On the procedure:
as §1

In assay [5] the target is T5, FcγRIIIa-158V (Acro Biosystems) (UniProt P08637 17-208).
T5 construct: The 158V/F allotypes are those of the human receptor
Kind of assay: BLI (Fortebio), FcγR loaded on HIS1K probe, pH 7.0. On the procedure: as §1

Assay [6] deals with T6, FcγRIIa-131H (Acro Biosystems) (UniProt P12318 36-218, limits assumed).
T6 construct: The 131H/R allotypes are those of the human receptor
T6 sequence (looked up): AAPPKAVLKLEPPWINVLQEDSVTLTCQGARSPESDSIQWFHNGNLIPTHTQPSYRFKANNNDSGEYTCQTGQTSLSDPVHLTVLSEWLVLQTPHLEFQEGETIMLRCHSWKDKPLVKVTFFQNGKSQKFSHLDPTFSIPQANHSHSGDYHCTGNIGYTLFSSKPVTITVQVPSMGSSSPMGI
Kind of assay: BLI (Fortebio), FcγR loaded on HIS1K probe, pH 7.0. On the procedure: as §1

The target of assay [7] is T1, FcγRIIa-131R (Acro Biosystems). Kind of assay: BLI (Fortebio), ratio of KD against m1. On the procedure:
as §1

The target of assay [8] is T2, FcγRIIIa-158F (Acro Biosystems). The assay is described as follows: BLI (Fortebio), ratio of KD against m1. On the procedure: as §1
Assay [9] has as its target T3, FcγRI (Acro Biosystems). Kind of assay: BLI (Fortebio), ratio of KD against m1. On the procedure: as §1
In assay [10] the target is T4, FcγRIIb (Acro Biosystems). The assay is described as follows: BLI (Fortebio), ratio of KD against m1. On the procedure:
as §1

For assay [11], the target named is T5, FcγRIIIa-158V (Acro Biosystems). The assay is described as follows: BLI (Fortebio), ratio of KD against m1. On the procedure:
as §1

In assay [12] the target is T6, FcγRIIa-131H (Acro Biosystems). The assay is described as follows: BLI (Fortebio), ratio of KD against m1. On the procedure:
as §1

For orientation: kon means a measure of how fast the partners come together. A high value points to faster complex formation. What is called Kd is a measure of binding affinity in units of concentration. Lower therefore signals tighter binding.

Chain of FcRn (Acro Biosystems) (P55899 24-297 limits assumed, chain 1 of 2): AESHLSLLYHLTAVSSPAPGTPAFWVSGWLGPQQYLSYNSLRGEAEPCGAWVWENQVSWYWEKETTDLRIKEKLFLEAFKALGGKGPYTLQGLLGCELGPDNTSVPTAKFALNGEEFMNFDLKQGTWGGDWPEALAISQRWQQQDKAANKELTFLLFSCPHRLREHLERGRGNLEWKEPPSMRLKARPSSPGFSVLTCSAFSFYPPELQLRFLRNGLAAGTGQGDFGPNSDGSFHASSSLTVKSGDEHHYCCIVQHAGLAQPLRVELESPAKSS
Chain of FcRn (Acro Biosystems) (P61769 21-119 limits assumed, chain 2 of 2): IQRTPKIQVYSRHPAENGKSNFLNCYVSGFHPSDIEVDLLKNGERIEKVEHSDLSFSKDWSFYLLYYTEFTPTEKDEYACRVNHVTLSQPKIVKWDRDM
T5 sequence (P08637 17-208 F176V limits assumed): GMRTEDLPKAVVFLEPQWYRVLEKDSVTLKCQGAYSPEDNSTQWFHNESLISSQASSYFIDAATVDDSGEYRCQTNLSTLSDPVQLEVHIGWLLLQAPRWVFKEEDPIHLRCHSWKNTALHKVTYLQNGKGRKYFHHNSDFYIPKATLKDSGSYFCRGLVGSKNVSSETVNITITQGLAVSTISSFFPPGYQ
T2 sequence (P08637 17-208 limits assumed): as the sequence (P08637 17-208 F176V limits assumed) above, with V160F counted along it
T3 sequence (P12314 16-288 limits assumed): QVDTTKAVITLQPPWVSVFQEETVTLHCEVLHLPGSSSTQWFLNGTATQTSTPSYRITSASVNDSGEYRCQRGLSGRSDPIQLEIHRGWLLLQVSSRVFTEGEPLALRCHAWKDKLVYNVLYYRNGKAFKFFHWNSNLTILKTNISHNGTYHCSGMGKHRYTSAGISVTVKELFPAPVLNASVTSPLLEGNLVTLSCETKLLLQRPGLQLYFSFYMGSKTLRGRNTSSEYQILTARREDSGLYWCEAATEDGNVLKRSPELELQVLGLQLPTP

B1: Fc variant m1 (other)
chain: DKTHTCPPCPAPELLGGPSVFLFPPKPKDTLYITREPEVTCVVVDVSHEDPEVKFNWYVDGVEVHNAKTKPREEQYNSTYRVVSVLTVLHQDWLNGKEYKCKVSNKALPAPIEKTISKAKGQPREPQVYTLPPSRDELTKNQVSLTCLVKGFYPSDIAVEWESNGQPENNYKTTPPVLDSDGSFFLYSKLTVDKSRWQQGNVFSCSVMHEALKFHYTQKSLSLSP
modifications: N-glycan with 2,6-sialic acid (variant co-expressed with human GT and ST in ExpiCHO-S cells)
notes: also called control m1
The molecule B1 registered a kon with FcRn (Acro Biosystems) of 214000 M⁻¹ s⁻¹. In addition, the Kd was found to be 2050 nM in assay [1]; 7210 nM in assay [2]; 316 nM in the assay with FcγRI (Acro Biosystems) [3]; 10700 nM in assay [4]; 1710 nM in [5]; 2560 nM in [6].

B2: Fc variant m6 (other)
chain: DKTHTCPPCPAPELLGGPSVFLFPPKPKDTLYITREPEVTCVVADVSHEDPEVKFNWYVDGVEVHNAKTKPREEQYNSTYRVVSVLTVLHQDWLNGKEYKCKVSNKALPAPIEKTISKAKGQPREPQVYTLPPSRDELTKNQVSLTCLVKGFYPSDIAVEWESNGQPENNYKTTPPVLDSDGSFFLYSKLTVDKSRWQQGNVFSCSVMHEALKFHYTQKSLSLSP
modifications: N-glycan with 2,6-sialic acid (variant co-expressed with human GT and ST in ExpiCHO-S cells)
notes: Fc fragment variant of IgG1
For B2, in the assay with FcRn (Acro Biosystems), the kon came to 212000 M⁻¹ s⁻¹. Moreover, the “Fold change of m6 relative to m1” value in assay [7] is 1.46 fold; in assay [8] it was 0.75 fold; in the assay with FcγRI (Acro Biosystems) [9], 0.99 fold; in [10], 1.57 fold; in [11] it was 0.97 fold; in assay [12] it was 1 fold. Further, the Kd in assay [1] is 1400 nM; in [2] it was 9670 nM; with FcγRI (Acro Biosystems) [3], 319 nM; in assay [4] it was 6820 nM; in assay [5] it was 1760 nM; in assay [6], 2560 nM.

B3: Fc variant m4 (other)
chain: DKTHTCPPCPAPELLGGPSVFLAPPKPKDTLYITREPEVTCVVVDVSHEDPEVKFNWYVDGVEVHNAKTKPREEQYNSTYRVVSVLTVLHQDWLNGKEYKCKVSNKALPAPIEKTISKAKGQPREPQVYTLPPSRDELTKNQVSLTCLVKGFYPSDIAVEWESNGQPENNYKTTPPVLDSDGSFFLYSKLTVDKSRWQQGNVFSCSVMHEALKFHYTQKSLSLSP
modifications: N-glycan with 2,6-sialic acid (variant co-expressed with human GT and ST in ExpiCHO-S cells)
notes: Fc fragment variant of IgG1
B3 returned an on-rate constant (kon) with FcRn (Acro Biosystems) of 298000 M⁻¹ s⁻¹.

B4: Fc variant m7 (other)
chain: DKTHTCPPCPAPELLGGPSVFLFPPKPKDTLYITREPEVTCVVEDVSHEDPEVKFNWYVDGVEVHNAKTKPREEQYNSTYRVVSVLTVLHQDWLNGKEYKCKVSNKALPAPIEKTISKAKGQPREPQVYTLPPSRDELTKNQVSLTCLVKGFYPSDIAVEWESNGQPENNYKTTPPVLDSDGSFFLYSKLTVDKSRWQQGNVFSCSVMHEALKFHYTQKSLSLSP
modifications: N-glycan with 2,6-sialic acid (variant co-expressed with human GT and ST in ExpiCHO-S cells)
notes: Fc fragment variant of IgG1
B4 came in with a kon in the assay with FcRn (Acro Biosystems) of 221000 M⁻¹ s⁻¹. The “Fold change of m7 relative to m1” value with FcγRI (Acro Biosystems) [9] amounted to 4.95 fold. Moreover, the Kd with FcγRI (Acro Biosystems) [3] was 63.8 nM.

B5: Fc variant m9 (other)
chain: DKTHTCPPCPAPELLGGPSVFLFPPKPKDTLYITREPEVTCVVVDVSHEDPEVKFNWYVDGVEVHNAKTKPREEQNASTYRVVSVLTVLHQDWLNGKEYKCKVSNKALPAPIEKTISKAKGQPREPQVYTLPPSRDELTKNQVSLTCLVKGFYPSDIAVEWESNGQPENNYKTTPPVLDSDGSFFLYSKLTVDKSRWQQGNVFSCSVMHEALKFHYTQKSLSLSP
notes: Fc fragment variant of IgG1, co-expressed with human GT and ST
With B5, the kon in the assay with FcRn (Acro Biosystems) was 208000 M⁻¹ s⁻¹.

B6: Fc variant m10 (other)
chain: DKTHTCPPCPAPELLGGPSVFLFPPKPKDTLYITREPEVTCVVVDVSHEDPEVKFNWYVDGVEVHNAKTKPREEQYNNASRVVSVLTVLHQDWLNGKEYKCKVSNKALPAPIEKTISKAKGQPREPQVYTLPPSRDELTKNQVSLTCLVKGFYPSDIAVEWESNGQPENNYKTTPPVLDSDGSFFLYSKLTVDKSRWQQGNVFSCSVMHEALKFHYTQKSLSLSP
notes: as for B5
Regarding B6, the kon with FcRn (Acro Biosystems) turned out to be 221000 M⁻¹ s⁻¹.

B7: Fc variant m3 (other)
chain: DKTHTCPPCPAPELLGGPSVALFPPKPKDTLYITREPEVTCVVVDVSHEDPEVKFNWYVDGVEVHNAKTKPREEQYNSTYRVVSVLTVLHQDWLNGKEYKCKVSNKALPAPIEKTISKAKGQPREPQVYTLPPSRDELTKNQVSLTCLVKGFYPSDIAVEWESNGQPENNYKTTPPVLDSDGSFFLYSKLTVDKSRWQQGNVFSCSVMHEALKFHYTQKSLSLSP
modifications: N-glycan with 2,6-sialic acid (variant co-expressed with human GT and ST in ExpiCHO-S cells)
notes: Fc fragment variant of IgG1
Molecule B7 registered a kon in the assay with FcRn (Acro Biosystems) of 272000 M⁻¹ s⁻¹.

B8: Fc variant m8 (other)
chain: DKTHTCPPCPAPELLGGPSVFLFPPKPKDTLYITREPEVTCVVVDVSHEDPEVKFNWYVDGVEVHNAKTKPREEQANSTYRVVSVLTVLHQDWLNGKEYKCKVSNKALPAPIEKTISKAKGQPREPQVYTLPPSRDELTKNQVSLTCLVKGFYPSDIAVEWESNGQPENNYKTTPPVLDSDGSFFLYSKLTVDKSRWQQGNVFSCSVMHEALKFHYTQKSLSLSP
notes: as for B5
B8: the kon with FcRn (Acro Biosystems) is 115000 M⁻¹ s⁻¹.

B9: Fc variant m11 (other)
chain: DKTHTCPPCPAPELLGGPSVFLFPPKPKDTLYITREPEVTCVVVDVSHEDPEVKFNWYVDGVEVHNAKTKPREEQYNSTARVVSVLTVLHQDWLNGKEYKCKVSNKALPAPIEKTISKAKGQPREPQVYTLPPSRDELTKNQVSLTCLVKGFYPSDIAVEWESNGQPENNYKTTPPVLDSDGSFFLYSKLTVDKSRWQQGNVFSCSVMHEALKFHYTQKSLSLSP
modifications: N-glycan with 2,6-sialic acid (variant co-expressed with human GT and ST in ExpiCHO-S cells)
notes: Fc fragment variant of IgG1
In turn, B9 gave a kon in the assay with FcRn (Acro Biosystems) of 38300 M⁻¹ s⁻¹.

B10: Fc variant m5 (other)
chain: DKTHTCPPCPAPELLGGPSVFLFPPKPKDTLYITREPEVTCVVVDVSHEDPEVKFNWYVDGVEVHNAKTKPREQYNSTYRVVSVLTVLHQDWLNGKEYKCKVSNKALPAPIEKTISKAKGQPREPQVYTLPPSRDELTKNQVSLTCLVKGFYPSDIAVEWESNGQPENNYKTTPPVLDSDGSFFLYSKLTVDKSRWQQGNVFSCSVMHEALKFHYTQKSLSLSP
modifications: N-glycan with 2,6-sialic acid (variant co-expressed with human GT and ST in ExpiCHO-S cells)
notes: Fc fragment variant of IgG1
In the case of B10, the kon with FcRn (Acro Biosystems) was 347000 M⁻¹ s⁻¹.
